# Assay results: the Human Domainome abundance scans (Beltran et al. 2025)
# ± gives the uncertainty stated by the source.
# B1: POU domain, class 3, transcription factor 2, residues 262 to 338; numbered along this chain, P20265 (parent)
# chain: EDTPTSDDLEQFAKQFKQRRIKLGFTQADVGLALGTLYGNVFSQTTICRFEALQLSFKNMCKLKPLLNKWLEEADSS
# Variants of: B1
# Assay: abundance fitness (aPCA) (normalised: wild type 0, dead -1); higher = more abundant; growth selection in yeast, the domain comes from the species named
# Settings: Homo sapiens
row,Variant,abundance fitness
1,Q27S,-0.125 ± 0.035
2,Q27R,-0.201 ± 0.029
3,Q27A,-0.071 ± 0.032
4,L34Q,-0.948 ± 0.15
5,L34V,-0.329 ± 0.036
6,L34E,-1.01 ± 0.15
7,L34Y,-0.895 ± 0.17
8,Q11W,-0.196 ± 0.033
9,Q11R,0.001 ± 0.028
10,E73S,-0.071 ± 0.068
11,S77E,-0.016 ± 0.051
12,K64N,-0.944 ± 0.26
13,K64T,-0.118 ± 0.045
14,K64R,-0.092 ± 0.031
15,K64Q,-0.067 ± 0.045
16,R49S,-0.175 ± 0.034
17,R49M,-0.125 ± 0.042
18,R49H,-0.314 ± 0.09
19,P4Y,-0.102 ± 0.12
20,P4G,-0.01 ± 0.035
21,L9T,-0.289 ± 0.048
22,L9W,-0.396 ± 0.037
23,E10H,0.093 ± 0.047
24,E10N,-0.204 ± 0.075

row,Variant,abundance fitness
1,E10I,-0.086 ± 0.069
2,L66H,-0.274 ± 0.08
3,L66E,-0.637 ± 0.061
4,L66V,-0.077 ± 0.03
5,L66C,-0.239 ± 0.05
6,F16H,-0.91 ± 0.19
7,F16C,-0.765 ± 0.076
8,A52F,-0.844 ± 0.46
9,A52H,-0.213 ± 0.1
10,A52K,-0.07 ± 0.04
11,A52W,-0.552 ± 0.054
12,A52S,0.015 ± 0.033
13,P65Y,0.137 ± 0.23
14,P65H,-0.034 ± 0.25
15,P65T,-0.059 ± 0.12
16,V30W,-0.793 ± 0.14
17,V41P,-0.042 ± 0.069
18,V41S,-0.017 ± 0.045
19,N59F,-0.014 ± 0.086
20,D75T,-0.014 ± 0.042
21,D75V,-0.135 ± 0.031
22,D75H,-0.081 ± 0.06
23,D75P,-0.106 ± 0.049
24,E72R,-0.068 ± 0.03

row,Variant,abundance fitness
1,E72K,-0.12 ± 0.087
2,E72G,-0.178 ± 0.033
3,E72V,0.017 ± 0.035
4,Q44K,-0.009 ± 0.042
5,Q44L,-0.248 ± 0.039
6,Q44S,0.008 ± 0.035
7,L67G,-1.05 ± 0.21
8,Y38E,-0.199 ± 0.038
9,Y38D,-0.036 ± 0.045
10,Y38Q,-0.141 ± 0.052
11,D7S,0.054 ± 0.45
12,D7P,-0.143 ± 0.3
13,L71S,-0.207 ± 0.075
14,L71F,-0.699 ± 0.22
15,L71R,-0.427 ± 0.077
16,L71M,0.067 ± 0.12
17,K17W,-0.832 ± 0.064
18,K17H,-0.343 ± 0.067
19,R20Y,-0.63 ± 0.17
20,R20M,-1.29 ± 0.3
21,T45R,-0.005 ± 0.025
22,K69R,0.019 ± 0.056
23,K69F,-0.234 ± 0.14
24,K69C,-0.449 ± 0.16

row,Variant,abundance fitness
1,F25L,-0.08 ± 0.03
2,F25E,-0.773 ± 0.092
3,K62W,-0.172 ± 0.038
4,L32N,0.091 ± 0.19
5,L32K,0.493 ± 0.48
6,M60L,-0.282 ± 0.039
7,M60T,-0.337 ± 0.054
8,M60R,-0.706 ± 0.047
9,M60W,-0.625 ± 0.071
10,M60N,-0.561 ± 0.33
11,N68P,-0.98 ± 0.47
12,L63V,-0.263 ± 0.029
13,L63K,-0.749 ± 0.14
14,L63T,-0.524 ± 0.061
15,A13N,-1.07 ± 0.28
16,A13L,-0.759 ± 0.082
17,C61A,-0.101 ± 0.031
18,C61G,-0.278 ± 0.027
19,T36G,-0.079 ± 0.027
20,T36Q,-0.038 ± 0.045
21,L23R,-0.239 ± 0.034
22,L23K,-0.332 ± 0.052
23,L23A,-0.188 ± 0.033
24,L23Y,-0.139 ± 0.054

row,Variant,abundance fitness
1,G24F,-1 ± 0.25
2,G24P,-0.714 ± 0.069
3,S76F,-0.161 ± 0.056
4,S76L,-0.099 ± 0.033
5,S76G,0.004 ± 0.026
6,S76V,0.01 ± 0.032
7,S76Q,0.055 ± 0.047
8,L37C,-0.031 ± 0.053
9,L37P,-0.293 ± 0.062
10,S43C,-0.042 ± 0.05
11,S43N,0.01 ± 0.054
12,S43W,-0.5 ± 0.062
13,S43R,-0.206 ± 0.031
14,S43M,-0.569 ± 0.071
15,S43F,-0.57 ± 0.18
16,K58W,-0.235 ± 0.044
17,K58H,-0.486 ± 0.26
18,E51M,-1 ± 0.21
19,E51N,-0.886 ± 0.29
20,S56L,-0.633 ± 0.06
21,S56E,-0.128 ± 0.043
22,S56R,-0.366 ± 0.034
23,G35Q,0.025 ± 0.046
24,G35I,-0.367 ± 0.1

row,Variant,abundance fitness
1,G35L,-0.453 ± 0.039
2,G35P,-0.612 ± 0.071
3,Q15Y,0.092 ± 0.076
4,Q15F,-0.187 ± 0.13
5,Q15M,0.051 ± 0.042
6,R19N,-0.182 ± 0.095
7,R19E,-0.116 ± 0.039
8,R19G,-0.308 ± 0.034
9,N40M,-0.107 ± 0.051
10,N40R,0.023 ± 0.035
11,L53F,-0.09 ± 0.061
12,L53D,-0.411 ± 0.068
13,A33Q,0.015 ± 0.042
14,A33M,-0.077 ± 0.041
15,A33W,-0.021 ± 0.036
16,G31N,-0.44 ± 0.1
17,F50V,-0.682 ± 0.049
18,A28L,-0.196 ± 0.04
19,A28Y,-0.117 ± 0.065
20,A28P,-0.811 ± 0.12
21,A28W,-0.301 ± 0.042
22,A28N,-0.019 ± 0.079
23,C48M,0.059 ± 0.043
24,C48F,-0.2 ± 0.075

row,Variant,abundance fitness
1,Q54S,-0.157 ± 0.045
2,I21R,-0.195 ± 0.029
3,I21H,-0.267 ± 0.08
4,T3R,-0.086 ± 0.029
5,T3I,0.094 ± 0.06
6,T3G,-0.342 ± 0.03
7,T3L,-0.086 ± 0.037
8,K22Q,-0.028 ± 0.043
9,W70F,-0.111 ± 0.068
10,L55G,-0.61 ± 0.031
11,D29L,-0.63 ± 0.053
12,D29C,-0.542 ± 0.062
13,G39P,-0.023 ± 0.046
14,A74C,0.034 ± 0.046
15,A74K,-0.037 ± 0.051
16,A74T,-0.026 ± 0.05
17,T46Y,-0.547 ± 0.14
18,F12C,-0.555 ± 0.16
19,F42A,-0.012 ± 0.034
20,F42Y,0.056 ± 0.06
21,I47V,-0.121 ± 0.027
22,E1G,-0.031 ± 0.037
23,E1S,-0.164 ± 0.076
